The values below come from US9920133B2, “Anti-tissue factor monoclonal antibody” (NATIONAL CANCER CENTER, priority 2014, dated 2018).

Data set [1] relates to Mouse B16 melanoma cells and cells thereof that were forced to express TF. The experiment in a line: Internalization assay (anti-mTF antibody). In kind it is cell-based. To be noted: mouse B16 melanoma cells and TF-forced-expression cells, 30 μg Alexa 647-labeled antibody, 3 hours. Here is the method: (§1) Each monoclonal antibody obtained as described above was subjected to the following internalization assay.
(§2) Mouse B16 melanoma cells and cells thereof that were forced to express TF were seeded into a four-chamber Culture Slide (BD) at 5×10^4 cells/chamber, and cultured in RPMI 1640 medium at 37° C. under a 5% CO2 environment for 12 hours. The resultant was washed three times with PBS, and then 30 μg of antibody labeled with an Alexa 647 fluorescence labeling kit (Invitrogen) was diluted with 1 ml of RPMI 1640 medium and added to each chamber, followed by culturing for 3 hours. After 2 hours from the initiation of this culturing, Lysotracker® RED-DND99 (Invitrogen) was added to the culture solution to have a final concentration of 75 nM, followed by further culturing for 1 hour. Then, the resultant was washed three times with PBS. After that, immobilization was performed with 4% paraformaldehyde, and nuclear staining was performed with 4′,6-diamidino-2-phenylindole (DAPI), followed by mounting with Fluoromount-G® (Southern Biotech). Then, the cells were observed using a fluorescence microscope (Keyence).

Data set [2] relates to Pancreatic cancer cells BxPC3 that express TF in high amounts. The experiment in a line: Internalization assay (anti-hTF antibodies). In kind it is cell-based, human. To be noted: 30 μg Alexa 647-labeled antibody, culturing for 3 hours, fluorescence microscope. Here is the method: as §1
as §2, with “Pancreatic cancer” for “Mouse B16 melanoma”, “BxPC3” for “and cells thereof”, “that” for “that were forced to”, “TF in high amounts” for “TF”

For data set [3], the system named is Human pancreatic cancer cells (BxPC3). The experiment in a line: Cytocidal effect confirmation test. Format: cell-based. The settings on record: BxPC3, 72 hours after addition, compared to mTF-MMAE. Here is the method: Human pancreatic cancer cells (BxPC3) were added to a 96-well plate at 3×10^3 cells/well, and cultured in RPMI medium containing 10% FCS, penicillin (100 U/ml), and streptomycin (100 μg/ml) hTF-MMAE was added to the wells at various drug concentrations, and cell survival rates 72 hours after the addition were calculated.
It should be noted that, as a comparative test, a similar test was performed using, in place of hTF-MMAE, mTF-MMAE obtained by binding MMAE, in the same manner as above, to a monoclonal antibody (mTF) against mouse TF not expressed in human cancer cells, and a cell survival rate was calculated. The ratio (%) of each cell survival rate, with the cell survival rate of a negative control (no addition of a drug sample) being defined as 100%, is shown in FIG. 3.

In data set [4] the test system is human pancreatic cancer cells (BxPC3) implanted subcutaneously. Briefly: Antitumor effect confirmation test (tumor volume). In kind it is in vivo, nude mice (BALBc nu/nu). The settings on record: BxPC3 xenograft nude mice, 10 mg/kg tail vein on Day 0, 4, 8, until Day 30. Here is the method: (§3) 1×10^7 cells/100 μL of human pancreatic cancer cells (BxPC3) were implanted subcutaneously into the backs of 4-week-old nude mice (BALBc nu/nu, female), and treatment was initiated when the tumor volume (calculated based on the tumor diameter) reached about 200 mm^3. The day of initiation of the treatment was defined as Day 0, and a drug was administered to the tail vein once on each of Day 0, Day 4, and Day 8 (administration three times in total). hTF-MMAE was used as the drug, and physiological saline was administered as a control (each group: N=7). The dose of the drug was 10 mg/kg per administration (antibody amount: about 200 μg/mouse). Thereafter, the tumor diameter and the body weight were measured twice a week until Day 30. The ratios of the tumor volume and the body weight to the tumor volume and the body weight at Day 0 are shown in FIG. 4 and FIG. 5, respectively.

Data set [5] can be described thus: Body weight in the antitumor effect confirmation test. In kind it is in vivo, nude mice (BALBc nu/nu). To be noted: BxPC3 xenograft nude mice, 10 mg/kg tail vein on Day 0, 4, 8, until Day 30. Here is the method: as §3
For the next data set, the target named is T1, recombinant hTF antigen (Homo sapiens, UniProt P13726).
T1 construct: made in house; host or cells: Escherichia coli
Briefly: Anticoagulant activity evaluation (prothrombin time). In kind it is biochemical. To be noted: based on prolonged coagulation time ratio. Here is the method:
The prothrombin time of each of the anti-hTF monoclonal antibodies (No. 1849 and No. 1859) was measured as described below.
3 μg of the antibody was added to 350 ng of a recombinant hTF antigen, and PBS was added to a total volume of 5 μl. An antigen-antibody reaction was performed for 15 minutes under shaking at 37° C. and 600 rpm. To the reaction solution, 50 μl of human […] subjected to anticoagulant treatment with 3.8% sodium citrate, and 100 μl of 25 mM CaCl2 were added, and at the same time, culturing was performed under shaking at 37° C. and 600 rpm. The period of time until a fibrin clot was formed (prothrombin time) was measured. The prolonged coagulation time ratio (prothrombin time ratio) of each antibody when the prothrombin time in a control using PBS in place of the reaction solution is defined as 1 are shown in Table 3 and FIG. 2.

T1 sequence (P13726 with tags, fused parts or gaps): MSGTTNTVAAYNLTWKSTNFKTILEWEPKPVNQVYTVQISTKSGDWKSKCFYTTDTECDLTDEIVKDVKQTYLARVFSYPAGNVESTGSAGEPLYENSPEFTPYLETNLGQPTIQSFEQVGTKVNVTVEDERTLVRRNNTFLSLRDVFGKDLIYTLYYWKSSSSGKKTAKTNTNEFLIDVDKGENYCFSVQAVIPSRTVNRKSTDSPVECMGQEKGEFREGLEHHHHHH

B1: No. 1157: anti-mouse tissue factor monoclonal antibody, heavy/light chain variable regions SEQ ID NOS: 25 and 26 (antibody, V domains shown)
VH: MAEVMLVESGGGLVQPGRSLKLSCLASGFTFTDYGMNWIRQTPGKGLEWVASITVRNYIYYADTVKGRFTISRENAKNTLYLQMTSLTSEDTALYYCSRRTEGMDYWGQGVMVTVSS
VL: MTQSPSFLSASVGDRVTVTCKVSQNINGYLNWYQQKVGEAPKVLIYNTDNLQTDVPSRFSGSGSGTVFTLTISSLHPEDVATHFCLQHYSWPLTFGSGTQLEIKR
modifications: rat
Take B1: in data set [1], the “ability to be internalized (fluorescence-labeled antibody transferred into cells)” value is recorded as “had the ability to be internalized by a cell expressing mTF”.

B2: No. 1849: rat anti-human tissue factor monoclonal antibody, heavy/light chain variable regions SEQ ID NOS: 9 and 10 (antibody, V domains shown)
VH: EVQLVESGGGLVQSGRSLKLSCAASGFTFSDYNMAWIRQAPKKGLEWVAAIIYDGTRTYYRDSVRGRFTISRDNAKSTLYLQVDSLRSEDTATYYCATGDSYTNFAYWGQGTLVTVSS
VL: EIVLTQSPTTMAASPGEKVTLTCRASSSLSYMHWYQQRSGTSPKLWIYETSKLASGVPNRFSGSGSGTSFSLTIDSMETEDAATYYCQQGNSYPRTFGGGTKLELK
modifications: rat
As for B2, the “ability to be internalized (labeling substance transferred into cells)” value in data set [2] is listed as “had the ability to be internalized”.

B3: hTF-MMAE: anti-hTF monoclonal antibody (No. 1849) having monomethyl auristatin E (MMAE) bound thereto, three to five MMAE molecules per antibody (conjugate)
VH: EVQLVESGGGLVQSGRSLKLSCAASGFTFSDYNMAWIRQAPKKGLEWVAAIIYDGTRTYYRDSVRGRFTISRDNAKSTLYLQVDSLRSEDTATYYCATGDSYTNFAYWGQGTLVTVSS
VL: EIVLTQSPTTMAASPGEKVTLTCRASSSLSYMHWYQQRSGTSPKLWIYETSKLASGVPNRFSGSGSGTSFSLTIDSMETEDAATYYCQQGNSYPRTFGGGTKLELK
modifications: non-natural residues
With B3, the “cytocidal effect (cell survival rate)” value in data set [3] is recorded as “remarkably excellent cytocidal effect”. For the same molecule, the “antitumor effect (tumor volume ratio to Day 0)” value in data set [4] is recorded as “remarkably excellent antitumor effect”. For the same molecule, the “body weight (ratio to Day 0)” value in data set [5] is on record as “a reduction in body weight was not found”.

B4: No. 1859: anti-human tissue factor monoclonal antibody, heavy/light chain variable regions SEQ ID NOS: 17 and 18 (antibody, V domains shown)
VH: EVMLVESGPGLVQPSQTLSLICTVSGFSLTDYSVHWVRQPPGKGLEWVGVMWSGGTTTFNSGLKSRLSISRDTSKSQVFLKMYSLRTEDTAVYYCTRERAGSPLNWFAYWGQGTLVTVSS
VL: DIVMTQSPASLSASLEEIVTITCQASQDIGNYLSWYQQKPGKSPHLLIHSSTSLADGVPSRFSGSRSGTQYSLKINRLQVEDTGVYYCLQHYSGSRTFGGGTNLELK
modifications: rat
For the molecule B4, the “ability to be internalized (labeling substance transferred into cells)” value in data set [2] was “had the ability to be internalized”. For the same molecule, the anticoagulant activity result with recombinant hTF antigen was “extremely small”.
